The test deals with T1, human Desmoglein2 (Dsg2) (human, UniProt Q14126 50-1118).
T1 construct: whole, on cells; also called Dsg2-expressing cells
T1 sequence (looked up): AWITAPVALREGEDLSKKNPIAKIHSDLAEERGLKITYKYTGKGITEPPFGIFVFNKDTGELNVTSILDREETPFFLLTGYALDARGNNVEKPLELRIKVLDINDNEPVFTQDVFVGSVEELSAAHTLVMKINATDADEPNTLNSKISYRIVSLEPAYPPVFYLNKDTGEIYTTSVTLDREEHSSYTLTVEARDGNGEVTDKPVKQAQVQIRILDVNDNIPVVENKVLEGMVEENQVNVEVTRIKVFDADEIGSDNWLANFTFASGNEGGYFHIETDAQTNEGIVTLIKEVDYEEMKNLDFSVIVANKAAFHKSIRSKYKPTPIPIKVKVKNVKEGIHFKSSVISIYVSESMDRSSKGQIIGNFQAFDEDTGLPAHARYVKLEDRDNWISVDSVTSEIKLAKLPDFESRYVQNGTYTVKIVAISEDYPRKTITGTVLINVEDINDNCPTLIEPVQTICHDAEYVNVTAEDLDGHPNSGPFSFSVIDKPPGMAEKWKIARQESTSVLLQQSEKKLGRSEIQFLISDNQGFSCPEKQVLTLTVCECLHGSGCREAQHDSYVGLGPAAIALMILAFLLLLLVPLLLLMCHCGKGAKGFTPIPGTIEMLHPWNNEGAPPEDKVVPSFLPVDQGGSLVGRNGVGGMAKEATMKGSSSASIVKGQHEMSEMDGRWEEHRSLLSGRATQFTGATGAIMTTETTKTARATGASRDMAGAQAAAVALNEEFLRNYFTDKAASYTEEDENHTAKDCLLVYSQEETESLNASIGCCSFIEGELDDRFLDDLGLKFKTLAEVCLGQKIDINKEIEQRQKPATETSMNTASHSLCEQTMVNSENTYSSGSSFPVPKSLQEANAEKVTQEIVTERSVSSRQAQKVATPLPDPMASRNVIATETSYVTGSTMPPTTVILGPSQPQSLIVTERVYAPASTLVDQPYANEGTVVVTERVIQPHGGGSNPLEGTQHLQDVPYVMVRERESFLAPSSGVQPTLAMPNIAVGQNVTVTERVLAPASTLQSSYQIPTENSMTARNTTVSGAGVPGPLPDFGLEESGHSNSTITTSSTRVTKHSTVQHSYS
The test is described as follows: flow cytometry and Western blotting, Dsg2 knockdown and Dsg2 over-expression cells.

Consider two molecules from patent US20190300604A1 (ASCLEPIUMM TAIWAN, published 2019).

B1: Dsg2 monoclonal antibody 3D4 (antibody, V domains shown)
VH: QIQLVQSGPELKKPGETVKISCKASGYTFTNYGMNWVRQAPGKALKWMVWMNTNTGESIYAEEFKGRFVFSLDTSASTAYLQINNLNNEDTATYFCARYWDTYWGQGTTLTVSS
VL: DIKMTQSPSSMYASLGERVTITCKASQDINSYLSWFQQKPGKSPKTLIYRANRLVDGVPSRFSGSGSGQDFSLTISSLEYEDMGIYYCLQYDEFPYTFGGGTKLEIK
notes: Mouse hybridoma antibody from BALB/c mice, detected with anti-mouse IgG Fc-gamma specific antibody; also called mAb 3D4
Regarding B1, the binding result is “binds”.

B2: Dsg2 monoclonal antibody 13D3 (antibody, V domains shown)
VH: QVQLQQPGAELVKPGASVKLSCKASGYTFTSYYMYWVKQRPGQGLEWIGGINPNNGGTNFNEKFKSKATLTVDKSSSTAYMQLRSLTSEDSAVYYCIRGSGYGNWGQGTLVTVSA
VL: DIKMTQSPSSMYASLGERVTITCKASQDINGYLSWFQQKPGKSPKTLIYRANRLVDGVPSRFSGSGSGQDYSLTISSLEYEDMGIYYCLQYDEFPYTFGGGTKLEIK
notes: Mouse hybridoma antibody from BALB/c mice, detected with anti-mouse IgG Fc-gamma specific antibody; also called mAb 13D3
Turning to B2, the binding result is “binds”.
